# In US20180193452A1 (NEMOURS FOUNDATION, published 2018):
# B1: FcεRIα extracellular domain mutant K117D (receptor)
# chain: VPQKPKVSLNPPWNRIFKGENVTLTCNGNNFFEVSSTKWFHNGSLSEETNSSLNIVNAKFEDSGEYKCQHQQVNESEPVYLEVFSDWLLLQASAEVVMEGQPLFLRCHGWRNWDVYDVIYYKDGEALKYWYENHNISITNATVEDSGTYYCTGKVWQLDYESEPLNITVIKAPREKYWLQ
# B2: FcεRIα extracellular domain mutant V155A (receptor)
# chain: VPQKPKVSLNPPWNRIFKGENVTLTCNGNNFFEVSSTKWFHNGSLSEETNSSLNIVNAKFEDSGEYKCQHQQVNESEPVYLEVFSDWLLLQASAEVVMEGQPLFLRCHGWRNWDVYKVIYYKDGEALKYWYENHNISITNATVEDSGTYYCTGKAWQLDYESEPLNITVIKAPREKYWLQ
# B3: FcεRIα extracellular domain mutant W87D (receptor)
# chain: VPQKPKVSLNPPWNRIFKGENVTLTCNGNNFFEVSSTKWFHNGSLSEETNSSLNIVNAKFEDSGEYKCQHQQVNESEPVYLEVFSDDLLLQASAEVVMEGQPLFLRCHGWRNWDVYKVIYYKDGEALKYWYENHNISITNATVEDSGTYYCTGKVWQLDYESEPLNITVIKAPREKYWLQ
# B4: FcεRIα extracellular domain mutant D159A (receptor)
# chain: VPQKPKVSLNPPWNRIFKGENVTLTCNGNNFFEVSSTKWFHNGSLSEETNSSLNIVNAKFEDSGEYKCQHQQVNESEPVYLEVFSDWLLLQASAEVVMEGQPLFLRCHGWRNWDVYKVIYYKDGEALKYWYENHNISITNATVEDSGTYYCTGKVWQLAYESEPLNITVIKAPREKYWLQ
# B5: FcεRIα extracellular domain mutant W113A (receptor)
# chain: VPQKPKVSLNPPWNRIFKGENVTLTCNGNNFFEVSSTKWFHNGSLSEETNSSLNIVNAKFEDSGEYKCQHQQVNESEPVYLEVFSDWLLLQASAEVVMEGQPLFLRCHGWRNADVYKVIYYKDGEALKYWYENHNISITNATVEDSGTYYCTGKVWQLDYESEPLNITVIKAPREKYWLQ
# B6: FcεRIα extracellular domain mutant Y131A (receptor)
# chain: VPQKPKVSLNPPWNRIFKGENVTLTCNGNNFFEVSSTKWFHNGSLSEETNSSLNIVNAKFEDSGEYKCQHQQVNESEPVYLEVFSDWLLLQASAEVVMEGQPLFLRCHGWRNWDVYKVIYYKDGEALKYWAENHNISITNATVEDSGTYYCTGKVWQLDYESEPLNITVIKAPREKYWLQ
# Molecular target: T1, purified human IgE (Abcam) (human, UniProt P01854-1 1-428)
# T1 construct: also called free IgE; secreted IgE
# T1 sequence (P01854 other isoform, or with tags, fused parts or gaps): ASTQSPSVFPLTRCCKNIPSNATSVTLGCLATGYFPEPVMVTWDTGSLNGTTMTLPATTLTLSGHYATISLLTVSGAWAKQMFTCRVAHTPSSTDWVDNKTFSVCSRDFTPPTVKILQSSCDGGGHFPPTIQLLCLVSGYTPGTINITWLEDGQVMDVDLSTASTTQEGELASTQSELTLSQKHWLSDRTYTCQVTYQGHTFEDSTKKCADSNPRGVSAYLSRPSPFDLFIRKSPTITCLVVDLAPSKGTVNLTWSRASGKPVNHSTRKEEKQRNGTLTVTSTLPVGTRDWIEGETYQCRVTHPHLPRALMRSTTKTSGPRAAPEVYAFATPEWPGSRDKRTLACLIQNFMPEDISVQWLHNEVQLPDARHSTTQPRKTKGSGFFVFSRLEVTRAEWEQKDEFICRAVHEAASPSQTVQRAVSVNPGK
# Assay: not told
row,Binder,fold affinity reduction over wild type [fold]
1,B1,27
2,B2,10
3,B3,7
4,B4,2
5,B5,5
6,B6,3
